Test results reported in US20220275067A1 (PROTHENA BIOSCIENCES, published 2022).
Substitutions are numbered along the chain they refer to.

B1: hu9F5VHv9/hu9F5VLv8 (antibody, V domains shown)
VH: EVQLVQSGAEVKKPGATVKISCKASGFNIKDDYMNWVQQRPGKGLEWIGWIDPENGDTEYASKFQGRATMTADTSTNTAYMELSSLRSEDTAVYYCTTSNGWGQGTLVTVSS
VL: DIVMTQSPFSLPVTPGESASISCRSSKSLLHSNGITYLYWYLQKPGQSPQLLIYQMSNLASGVPNRFSSSGSGTDFTLKISRVEAEDVGVYYCAQNLELPLTFGQGTKLEIK
B2: hu9F5VHv9/hu9F5VLv8_DIM1 (antibody, V domains shown)
VH: B1 VH
VL: B1 VL with V3Q, L30S, L42Q, M56G, L59G, L97I
B3: hu9F5VHv9/hu9F5VLv8_DIM2 (antibody, V domains shown)
VH: B1 VH
VL: B1 VL with V3Q, L30S, L42Q, M56G, L59R, L97I
B4: hu9F5VHv9/hu9F5VLv8_DIM3 (antibody, V domains shown)
VH: B1 VH
VL: B1 VL with V3Q, L30S, L42Q, M56G, L59T, L97I
B5: hu9F5VHv9/hu9F5VLv8_DIM4 (antibody, V domains shown)
VH: B1 VH
VL: B1 VL with V3Q, L30S, L42Q, M56G, L59R, L97G
B6: hu9F5VHv9/hu9F5VLv8_DIM5 (antibody, V domains shown)
VH: B1 VH
VL: B1 VL with V3Q, L30G, L42Q, M56G, L59R, L97I
B7: hu9F5VHv9/hu9F5VLv8_DIM6 (antibody, V domains shown)
VH: B1 VH
VL: B1 VL with V3Q, L30D, L42Q, M56G, L59R, L97I
B8: hu9F5VHv9/hu9F5VLv8_DIM7 (antibody, V domains shown)
VH: B1 VH
VL: B1 VL with V3Q, L30D, L42Q, M56K, L59R, L97I
B9: hu9F5VHv9/hu9F5VLv8_DIM8 (antibody, V domains shown)
VH: B1 VH
VL: B1 VL with V3Q, L30G, L42Q, M56K, L59R, L97I
B10: hu9F5VHv9/hu9F5VLv8_DIM9 (antibody, V domains shown)
VH: B1 VH
VL: B1 VL with V3Q, L30G, L42Q, M56K, L59G, L97I
B11: hu9F5VHv9/hu9F5VLv8_DIM10 (antibody, V domains shown)
VH: B1 VH
VL: B1 VL with V3Q, L30S, L42Q, M56K, L59G, L97I
B12: hu9F5VHv9/hu9F5VLv8_DIM11 (antibody, V domains shown)
VH: B1 VH
VL: B1 VL with V3Q, L30G, L42G, M56G, L59R, L97I
B13: hu9F5VHv9/hu9F5VLv8_DIM12 (antibody, V domains shown)
VH: B1 VH
VL: B1 VL with V3Q, L30G, L42G, M56G, L59R, L97G
B14: hu9F5VHv9/hu9F5VLv8_DIM13 (antibody, V domains shown)
VH: B1 VH
VL: B1 VL with V3Q, L30G, L42G, M56G, L59R
B15: hu9F5VHv9/hu9F5VLv8_DIM14 (antibody, V domains shown)
VH: B1 VH
VL: B1 VL with V3Q, L30G, L42G, M56G, L59T, L97I

Molecular target: T1, recombinant human 4R0N tau (human, UniProt P10636 2-758)
T1 construct: also called recombinant 4R0N human tau; P10636-6
Experiment: SPR Biacore T200; antibody captured by anti-human Fc; tau as analyte; global 1:1 fit
Protocol: Target binding analysis was performed using a Biacore T200 to compare the binding affinity of humanized 9F5 variants to recombinant human 4R0N tau. Anti-Human Fc antibody was immobilized on sensor chip CM3 via amine coupling, and humanized 9F5 variants were captured to equivalent levels. Various concentrations of recombinant 4R0N human tau (ranging from 0.02 nM to 12.5 nM) were passed over the captured ligand at 50 μL/min in running buffer (HBS+0.05% P-20, 1 mg/mL BSA) for 180 seconds association/420 seconds dissociation as a single cycle. Data was blank subtracted to both an irrelevant sensor not containing antibody and 0 nM analyte concentration. Analysis was performed using a global 1:1 fit with Biacore Evaluation software.

T1 sequence (P10636 other isoform, or with tags, fused parts or gaps limits assumed): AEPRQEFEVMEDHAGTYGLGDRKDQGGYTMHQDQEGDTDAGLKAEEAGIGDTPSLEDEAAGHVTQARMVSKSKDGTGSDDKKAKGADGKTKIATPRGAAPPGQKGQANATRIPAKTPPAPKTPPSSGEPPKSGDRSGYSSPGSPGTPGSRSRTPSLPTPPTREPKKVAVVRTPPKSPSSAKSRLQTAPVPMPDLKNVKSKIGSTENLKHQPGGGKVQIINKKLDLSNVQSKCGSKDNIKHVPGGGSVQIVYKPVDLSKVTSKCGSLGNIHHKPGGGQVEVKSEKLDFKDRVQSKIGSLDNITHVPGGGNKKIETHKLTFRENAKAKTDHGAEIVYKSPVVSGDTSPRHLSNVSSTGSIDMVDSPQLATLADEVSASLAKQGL

Q: For B1, which Kd is on record?
A: 0.269 nM

Q: And the koff?
A: 0.000429 s⁻¹

Q: What about the kon of the same binder?
A: 1.72e+06 M⁻¹ s⁻¹

Q: For B2, which Kd is on record?
A: 0.844 nM

Q: What about the koff of the same binder?
A: 0.00559 s⁻¹

Q: What about the kon of the same binder?
A: 6.62e+06 M⁻¹ s⁻¹

Q: What does the source list for B3?
A: Kd: 0.299 nM; koff: 0.000586 s⁻¹; kon: 1.96e+06 M⁻¹ s⁻¹

Q: Which Kd does the source give for B4 here?
A: 0.6 nM

Q: What about the koff of the same binder?
A: 0.00068 s⁻¹

Q: What about the kon of the same binder?
A: 1.13e+06 M⁻¹ s⁻¹

Q: Which results are given for B5?
A: Kd: 2.63 nM; koff: 0.00143 s⁻¹; kon: 542000 M⁻¹ s⁻¹

Q: Which results are given for B6?
A: Kd: 0.169 nM; koff: 0.000295 s⁻¹; kon: 1.75e+06 M⁻¹ s⁻¹

Q: Which Kd does the source give for B7 here?
A: 0.178 nM

Q: And the koff?
A: 0.000272 s⁻¹

Q: And the kon?
A: 1.53e+06 M⁻¹ s⁻¹

Q: For B8, which Kd is on record?
A: 0.18 nM

Q: And the koff?
A: 0.000424 s⁻¹

Q: And the kon?
A: 2.36e+06 M⁻¹ s⁻¹

Q: Which Kd does the source give for B9 here?
A: 0.435 nM

Q: What about the koff of the same binder?
A: 0.000576 s⁻¹

Q: What about the kon of the same binder?
A: 1.32e+06 M⁻¹ s⁻¹

Q: Which Kd does the source give for B10 here?
A: 5.07 nM

Q: And the koff?
A: 0.0116 s⁻¹

Q: And the kon?
A: 2.29e+06 M⁻¹ s⁻¹

Q: What does the source list for B11?
A: Kd: 3.92 nM; koff: 0.0741 s⁻¹; kon: 1.89e+07 M⁻¹ s⁻¹

Q: With B12 as the binder, how does the Kd read?
A: 0.0772 nM

Q: And the koff?
A: 0.00011 s⁻¹

Q: What about the kon of the same binder?
A: 1.42e+06 M⁻¹ s⁻¹

Q: For B13, which Kd is on record?
A: 0.221 nM

Q: What about the koff of the same binder?
A: 0.000429 s⁻¹

Q: And the kon?
A: 1.94e+06 M⁻¹ s⁻¹

Q: For B14, which Kd is on record?
A: 0.266 nM

Q: What about the koff of the same binder?
A: 0.000439 s⁻¹

Q: What about the kon of the same binder?
A: 1.65e+06 M⁻¹ s⁻¹

Q: For B15, which Kd is on record?
A: 0.142 nM

Q: And the koff?
A: 0.000188 s⁻¹

Q: What about the kon of the same binder?
A: 1.33e+06 M⁻¹ s⁻¹
